Data set [1] deals with recombinant APOBEC3A (rA3A) (human) (UniProt P31941). Nature of the data set: SEC; rA3A without concentration on a Superose-12 gel filtration column (FPLC) with protein standards, in the buffer used for measuring deaminase activity; fractions immunoblotted with anti-A3A antibody. Background: In gel filtration, larger molecules generally elute earlier.
The target of data set [2] is A3A E72A/delWG104-5 E72A;del104-105 (Homo sapiens) (UniProt P31941). The experiment in a line: extrinsic fluorescence titration. The settings on record: EMSA: 0.5 pmol oligo, 2 ug rA3A in 10 ul deaminase buffer (composition not given), 4 C, 1 h, 6% native PAGE. Intrinsic fluorescence: 225 nM rA3A, 25 mM Tris pH …. Background: A gel shift assay detects complexes by their altered migration in electrophoresis.
A3A E72A/delWG104-5 E72A;del104-105 (Homo sapiens), sequence (P31941 other isoform, or with tags, fused parts or gaps E72A E72A): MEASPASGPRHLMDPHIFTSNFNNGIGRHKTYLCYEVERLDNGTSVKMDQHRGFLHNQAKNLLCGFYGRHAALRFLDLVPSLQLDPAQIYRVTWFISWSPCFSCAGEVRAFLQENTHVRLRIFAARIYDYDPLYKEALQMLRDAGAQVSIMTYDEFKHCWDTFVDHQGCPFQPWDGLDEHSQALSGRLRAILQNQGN

In data set [3] the test system is rA3A wild type (Homo sapiens). The experiment in a line: fluorescence binding titration. Particulars: EMSA: 0.5 pmol oligo, 2 ug rA3A in 10 ul deaminase buffer (composition not given), 4 C, 1 h, 6% native PAGE. Intrinsic fluorescence: 225 nM rA3A, 25 mM Tris pH ….

In general, stoichiometry N refers to a count of units in the complex or per binding partner. One may read the Kd as the free concentration of one partner at which half of the binding sites on the other are occupied at equilibrium, for simple one-to-one binding. A higher Kd goes with weaker binding.

recombinant APOBEC3A (rA3A), P31941 1-199 (enzyme; other documents disagree on this pair), sequence (P31941 whole entry): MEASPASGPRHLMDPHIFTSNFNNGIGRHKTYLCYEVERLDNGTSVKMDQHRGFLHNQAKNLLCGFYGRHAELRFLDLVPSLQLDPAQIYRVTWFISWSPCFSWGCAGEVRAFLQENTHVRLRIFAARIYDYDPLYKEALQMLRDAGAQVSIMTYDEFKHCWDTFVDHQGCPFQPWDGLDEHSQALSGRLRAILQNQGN

In the case of “recombinant APOBEC3A (rA3A), P31941 1-199 (enzyme; other documents disagree on this pair)”, the stoichiometry N in data set [1] worked out at 2. As for ssDNA oligo of fluorescence Kd assays, the binding signal (fold higher affinity than wild type) in data set [2] amounted to 3. In data set [3], this substance returned a Kd of 158 nM.
